The target in the experiment is ACE2 receptor on ACE2-expressing HEK 293T cells (UniProt Q9BYF1). The experiment can be described thus: flow cytometry on cells.

Drawing on paper PMC10828404, this text covers fold increase in median fluorescence intensity (corrected for Cy5 brightness per RBD) against monomeric RBD-Cy5 for one substance.

UniProt Q9BYF1, sequence (Q9BYF1 18-805): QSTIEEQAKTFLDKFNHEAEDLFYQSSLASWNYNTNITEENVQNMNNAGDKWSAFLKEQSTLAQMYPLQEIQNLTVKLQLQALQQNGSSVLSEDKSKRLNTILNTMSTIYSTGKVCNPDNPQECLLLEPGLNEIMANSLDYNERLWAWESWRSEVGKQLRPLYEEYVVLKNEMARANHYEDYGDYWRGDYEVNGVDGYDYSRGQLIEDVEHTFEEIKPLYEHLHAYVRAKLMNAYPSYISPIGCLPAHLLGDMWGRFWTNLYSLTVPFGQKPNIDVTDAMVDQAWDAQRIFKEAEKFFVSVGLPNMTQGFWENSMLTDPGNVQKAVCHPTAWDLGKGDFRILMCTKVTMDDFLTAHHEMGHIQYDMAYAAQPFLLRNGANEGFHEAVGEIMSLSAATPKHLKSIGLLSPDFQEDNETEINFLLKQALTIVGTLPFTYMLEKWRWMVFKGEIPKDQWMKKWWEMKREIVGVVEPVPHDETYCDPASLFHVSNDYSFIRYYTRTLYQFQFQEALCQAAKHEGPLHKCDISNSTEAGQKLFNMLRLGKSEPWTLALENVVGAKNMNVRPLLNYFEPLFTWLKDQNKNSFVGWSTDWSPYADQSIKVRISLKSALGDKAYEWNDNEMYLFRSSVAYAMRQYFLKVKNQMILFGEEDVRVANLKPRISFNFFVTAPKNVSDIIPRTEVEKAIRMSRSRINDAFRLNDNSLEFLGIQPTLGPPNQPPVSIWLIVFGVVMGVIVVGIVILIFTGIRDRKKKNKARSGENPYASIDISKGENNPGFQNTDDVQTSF

For the substance “DNA-VLP-Cy5-30x (icosahedral DNA origami displaying 30 copies of the SARS-CoV-2 RBD and 5 copies of Cy5)”, the fold increase in median fluorescence intensity (corrected for Cy5 brightness per RBD) against monomeric RBD-Cy5 turned out to be 10 fold.
